# Laboratory results taken from article PMC8284890 (Science Advances, 2021).
# Molecular target: the molecule itself
# Test: cryo-EM particle classification
protein,measurement,value
"NTD-truncated human NPC1L1 in the cholesterol-enriched form (domain or fragment, UniProt Q9UHC9-2 265-1332, looked up, N-glycosylated (10 N-glycosylation sites seen in the density map)) AIARPQALDSTFYLGQMPGSLVLIIILCSVFAVVTILLVGFRVAPARDKSKMVDPKKGTSLSDKLSFSTHTLLGQFFQGWGTWVASWPLTILVLSVIPVVALAAGLVFTELTTDPVELWSAPNSQARSEKAFHDQHFGPFFRTNQVILTAPNRSSYRYDSLLLGPKNFSGILDLDLLLELLELQERLRHLQVWSPEAQRNISLQDICYAPLNPDNTSLYDCCINSLLQYFQNNRTLLLLTANQTLMGQTSQVDWKDHFLYCANAPLTFKDGTALALSCMADYGAPVFPFLAIGGYKGKDYSEAEALIMTFSLNNYPAGDPRLAQAKLWEEAFLEEMRAFQRRMAGMFQVTFMAERSLEDEINRTTAEDLPIFATSYIVIFLYISLALGSYSSWSRVMVDSKATLGLGGVAVVLGAVMAAMGFFSYLGIRSSLVILQVVPFLVLSVGADNIFIFVLEYQRLPRRPGEPREVHIGRALGRVAPSMLLCSLSEAICFFLGALTPMPAVRTFALTSGLAVILDFLLQMSAFVALLSLDSKRQEASRLDVCCCVKPQELPPPGQGEGLLLGFFQKAYAPFLLHWITRGVVLLLFLALFGVSLYSMCHISVGLDQELALPKDSYLLDYFLFLNRYFEVGAPVYFVTTLGYNFSSEAGMNAICSSAGCNNFSFTQKIQYATEFPEQSYLAIPASSWVDDFIDWLTPSSCCRLYISGPNKDKFCPSTVNSLNCLKNCMSITMGSVRPSVEQFHKYLPWFLNDRPNIKCPKGGLAAYSTSVNLTSDGQVLTSRFMAYHKPLKNSQDYTEALRAARELAANITADLRKVPGTDPAFEVFPYTITNVFYEQYLTILPEGLFMLSLCLVPTFAVSCLLLGLDLRSGLLNLLSIVMILVDTVGFMALWGISYNAVSLINLVSAVGMSVEFVSHITRSFAISTKPTWLERAKEATISMGSAVFAGVAMTNLPGILVLGLAKAQLIQIFFFRLNLLITLLGLLHGLVFLPVILSYVGPDVNPALALEQKRAEEAVAAVMVASCPNHPSRVSTADNIYVNHSFEGSIKGAGAISNFLPNNGRQF",binding result,binds
